Laboratory results taken from the DeepSol protein solubility set.

Test: soluble on expression in E. coli; label from the status in PepcDB or PDB records
For “MGSDKIHHHHHHMAGSVIHLDENAGPPATHGLVVGVGKYPHLEGGEAPVADSDGMRQLSSPPLSARAFARWLLAEYHDPQRPLGSVSLLLSEEQPAPFVNPRTGTAHEVEVATIDNILAAVTQWYDRGDSHVDNRLVFYFCGHGISQGDDMALLAADIFADPHNPLNGALDFAGLMNGLKRCKASQQVFFLDACRSNSDVLIEASGTRFAGRTPLGAGARPLDLPRRFHIPYYATLSGDQSHARPGQVSLFTEALLKSLAGAASDDPEGDWRVNTAHLLEAIDHFMHQPCFAGMVAGVQVPAVGELPVFVLHQLAGPPVVPVYVGCDPAQDNAEAEFVCLEGGRERLRRTLNDVDDTDPESEWAIELSFGDYDFEARLGERDVRTKTITVRPVFRRVHLVKS”, the “soluble on expression in E. coli” value was “not soluble”.
For “MGSDKIHHHHHHMAHYEVKPSFYNYVFSPYLEPAIKVNPGDTVSLYTDDAFESRITSEDVSPKAAVRNAKFLNPQSGPVYINGAEPGDTLAVHFESIEFTRDWAVSCVMEYFGGLQSNSITKMLQKPLVEEVYIWKSKDKGQTWTNDKIGVTIPANPFCGTLATAPDTEAIQALTPGQFGGNMDCPDICPGHTIYLPVHNPGALFYIGDCHAAQGQGELCGVALEISAKATLKFDVIKNKVTNWPRIESPEKIMSVGSAKPMEDAARIAYADLIDWMVSDYGFKVLDAYELLTMVGGLYVANMVDTTYSLCASIEKKYLKRNS”, the “soluble on expression in E. coli” value was “not soluble”.
With “MGSDKIHHHHHHMAIETILVINKSGGLIYQRNFTNDEQKLNSNEYLILASTLHGVFAIASQLTPKALQLTQQTNIENTIPYIPYVGMSSNRSDTRNGGGNNNKHTNNEKLGSFKGDDFFKEPFTNWNKSGLRQLCTDQFTMFIYQTLTGLKFVAISSSVMPQRQPTIATTDKPDRPKSTSNLAIQIADNFLRKVYCLYSDYVMKDPSYSMEMPIRSNLFDEKVKKMVENLQ” the “soluble on expression in E. coli” value was “not soluble”.
For “MGSDKIHHHHHHMAILLMQKPDNKAKQFICKKLGINNLGITKPGGRGLTQPVVKLELKRPLYAKGNNYNIINNDETDRYWKPAGITKIFLDRLTNCVSQEAGNMALAEGYFSLEDRYTLYFDISKIQQEFVDLNAQEFFRQFDNLKTLGMLADIAIPLQLCNGLDASITNFSDGQFQSVYIYSIVELFKDRNCLTLLDEPDSFLHPEWQFEFPKQVLEITDAAAKSNHILMSSHSASTITTANENLINLFELQDDKIVVNKVNKADIIKSLSAGLISFSESEAHLNIHHALKNTTGAVLFTEGITDEMILETAWTKIFPAQKRSFAIQNAFDRIFLRNLFSREELEKNFPDRIMFALFDFDEAYDDWNGLKKESDSETDPYKGLSKQLKCKHHYAMLLPVPDIQALKHQVLNPEGKPWGKGAQSHLPIELLFYKDEFLGQWFQKKATPGGGEIIEFIGDKVSFAKNFVPTLEATCFEPLKLVFEFIQSKC”, the “soluble on expression in E. coli” value was “not soluble”.
In the case of “MGSDKIHHHHHHMAKAPKMAFVCDDCGLDYPRWQGQCRCGAWNSLVEMKLSASKSSTSRSSVLGYAGAVGGGSKKLSEVESEDAEKRLTEIGELDRVLSGGLTTGSVNIISGDPGAGKTTLLSDLVARMSQSMASLYCTAEESLSQFKNRVNRLKLNYNEDNLFLLSETSVEAIIEELEAKQIKFAVIDSIQAVVTDAANGSPGSPSQVKTAAQAFTQYCKKNNVTMFIIAHVNKNNEIAGPQTLVHIVDSLLHIDTNDGQIRTLRANKNRFGDVDTVGIFRMSERGMISVDNPSEIFLSGSTTESPGSTITCIRKGNRNLLLEIQCLTTETESEFPQRVCVGLNMNRIKMLTGILRKHTKTKIFHDTFFNIVGGLKIDESETCIDLALVTALLSSLNDFVVPRTTCIMGELSLNGDVRPIDSGVPRVKEAAQHGFTEIFIPFRNYHKTMEGLGAKIIPVKTIHELLELIN”, the “soluble on expression in E. coli” value is reported as “not soluble”.
With “MGSDKIHHHHHHMAKCNAVAGFNALNGVQLNLFTTDELKAIHYATMEVLMDPGIQVSDPEARQIFKENGCEVNEQTNVVKIPEYLVRRALQLAPSRFVLWGRDKKYNTVQEAGGKVHWTCFGTGVKMCKYQEGKYVTVDSVEQDIADIAKLCDWAENIDYFSLPVSARDIAGQGAQDVHETFTPLTNTAKHFHHIDPVGENVEYYRDIVNAYYGGDEEEARKKPIFSMLLCPTSPLELSVNACQVIIKGARFGMPVNVLSMAMSGGSSPVYLAGTLVTHNAEVLAGITLAQLTVPGAKVWYGSSTTTFDLKKGTAPVGSPELGLISASVAKLAQFYGLPAFVAGT” the “soluble on expression in E. coli” value was “not soluble”.
With “MGSDKIHHHHHHMAKKTAVVDLGSNSIRMVIFEKTSRYGFYTTCEYKRKVRLGENAYNNGKILQEEAMQRAEDALAFFKQCALKHKCKKIFIVGTSALRDAPNSKNFIKRIKDNLSLNIRCIDGKSESYLGGLAALNLLSPFKDGTTLDIGGGSSELCLIKNNRIISCISLDIGTVRLKELFYDTGKMDSLEEFIKPILEQIPKEFCNQNLIAIGGSLRAISNSIMQKNSYPLKNLHDFRYMLDEEKGHILKIFNSNLDSLINFGIKKDRFDTIKEGIFIFLKIAEKIKAKQVITSGVGIREGVYLQDLLRPKITFPPNFNPSLKCLQDKFLQSKQKNKTPHFALQIFTTLKNLHKLNDNYKHTLLNAAKLCHIGEYLNFYFANEHSAHFVLGGLNYGFSHKEKALIASIIKLNGKKVNPYNLEPYKQLLPNIHTISWLNFILCLAKTLSANEDKIDFAFANNTLYIYQENKILNLPKDELKKIAKPATIALAINQKI” the “soluble on expression in E. coli” value was “not soluble”.
With “MGSDKIHHHHHHMAKRSIAYLDSVFDISYTFIDHHSPLNALFLHGWGSSKEIMQQAFQGCFLNYNHLYVDLPGFNQSPNDEKVLETKDYANIINLFLKSVGKKAHVVFGHSFGGKVAILCENERMVLLSSAGILEPKPLKVRCKILLAKIFKKLGLNLGFLRSKDAMGLNQAMYETFKKVISEDFSDHFKRCEKEVLLFWGKDDKATPLSSAQKMQTLLKRSVLFVLEGDHFFFLNQAKEIEKLVENYHHAKS” the “soluble on expression in E. coli” value was “not soluble”.
In the case of “MGSDKIHHHHHHMAMAHGRRRVFGSVEHRKIDMSFRPLFGSGRIRTAGEQPAQPTTASWPGSSVVFDRRRWTCREAELRWTAPHHVLVLTEEGATSQTSIRSDGKMVYEGRDRSGAITFVPAGVERLGAYRDVDLTYSALWIDPRSISPASEHLKDLPVLINKSDTVISALLKSLSSEISNGHIPDSAYVDHLIALVTLRIRGFADEPVPAPRHDSLGSRVVKRVRDYVDAHLDGDISLGDLADVAGVASDSFARRFKVTTGFAPYAYVLEERIRRSEALLCETDTTLSAIALACGFSSQSHFTTTFKRLRGVTPQAYRSKVIPES”, the “soluble on expression in E. coli” value is reported as “not soluble”.
For “MGSDKIHHHHHHMANLYDLKKFDLNLLVIFECIYQHLSISKAAESLYITPSAVSQSLQRLRAQFNDPLFIRSGKGIAPTTTGLNLHHHLEKNLRGLEQTINIVNKSELKKNFIIYGPQLISCSNNSMLIRCLRQDSSVEIECHDILMSAENAEELLVHRKADLVITQMPVISRSVICMPLHTIRNTLICSNRHPRITDNSTYEQIMAEEFTQLISKSAGVDDIQMEIDERFMNRKISFRGSSLLTIINSIAVTDLLGIVPYELYNSYRDFLNLKEIKLEHPLPSIKLYISYNKSSLNNLVFSRFIDRLNESF”, the “soluble on expression in E. coli” value was “not soluble”.
In the case of “MGSDKIHHHHHHMANPLTGYNFAYLDEQTKRMIRRAILKAVAIPGYQVPFGGREMPMPYGWGTGGIQLTASVIGENDVLKVIDQGADDTTNAVSIRQFFKRVTGVATTERTEDATLIQTRHRIPETPLVEDQILIYQVPIPEPLRFIEPRETETRTMHALEEYGVMQVKLYEDIARFGHIATTYAYPVKVNGRYVMDPSPIPKFDNPKMHMMPALQLFGAGREKRIYAVPPYTPVESLDFDDHPFTVQEWDEPCAICGSRHSYLDEVVLDDSGQRMFVCSDTDYCRQQSEGQKK”, the “soluble on expression in E. coli” value is reported as “not soluble”.
For “MGSDKIHHHHHHMAQKNNNVIPMTFDDAFYRKMAKQKFKQREYKRAAEYFEKVLELSPDDLEIQIDYAQCLVQLGIAKKAEHLFYDNIIYNRHLEDSFYELSQLNIEVNEPNKAFLFGINYVIVSDDQDYRDELDQMFDVKYQSEEQIELEAQLFVVQILFQYLFSQGRLKDAKNYVLHQPQEVQDHRVVRNLLAMCYLYLGEYDTAKALYEALLQEDSTDIYALCHYTLLLYNTKENEQYQKYLKILNKVVPMNDDESFKLGIVLSYLKQYRASQQLLYPLYKKGKFLSIQMYNALAYNYYYLGEEDESHYYWDKLKQISKVEIGHAPWVIENSKEVFDQHILPLLQSDDSHYRLYGIFLLDQLNGKEIVMTESIWQVLENLNNYEKLYLTYLVQGLTLNKLDFIHRGLLTLYQNELFVSENDLMVAWINQGELIIAEKVDLTDVEPYIGAFIYLYFKNQPRNVTKKQITTWLGITQYKLNKMIEFLLSI”, the “soluble on expression in E. coli” value was “not soluble”.
For “MGSDKIHHHHHHMAQSSIEWTEMTWNPTTGCTKISAGCKFCYAEIMSKRLKAMGIDKYKDGFKVNIYPDALSIPYTWKSSKVVFVNSMSDLFHEDIPLDYIKKVFQVMNENPQHVFQVLTKRAERLFEVYKELKWTHNIWMGVSVENDKVKNRIDLLRKTSAKVKFLSLEPLIGPLPKLNLKKIDWVIVGGESGHRPRPMDSDWVLDIQEQCLKSDVAFFFKQWGGRNKKANGRLLNGRTYDEMPEIMEIEKVK”, the “soluble on expression in E. coli” value was “not soluble”.
For “MGSDKIHHHHHHMAQVDLLNVKGEKVGTLEISDFVFNIDPNYDVMWRYVDMQLSNRRAGTASTKTRGEVSGGGRKPWPQKHTGRARHGSIRSPIWRHGGVVHGPKPRDWSKKLNKKMKKLALRSALSVKYRENKLLVLDDLKLERPKTKSLKEILQNLQLSDKKTLIVLPWKEEGYMNVKLSGRNLPDVKVIIADNPNNSKNGEKAVRIDGLNVFDMLKYDYLVLTRDMVSKIEEVLGNEAGKALTA”, the “soluble on expression in E. coli” value was “not soluble”.
In the case of “MGSDKIHHHHHHMARKRDDAALHLPLPEERQVTAFLQAHPDFLVRHPDLLLSLSPPSRWADDDGVLDMQVFMIDRLRDEVERVRGAAEHLIHTSRSNMSIQTRTHRAVLSILGAESMAELVEAISDDLPALLDVDVATLCFEKSEEALPDLLAPGILTLPGGTVAQIMGGADRDCALTEEMPGDPALFGDGAGLVQSSAVVRLSPGGKSPDGVMALGSRHGRTFHAGQATELITFLARVVEGSVRRFVG”, the “soluble on expression in E. coli” value is reported as “not soluble”.
For “MGSDKIHHHHHHMARLAKIKVKTLEQRLWDTADALRGNQEPSEYKHVVLGLVFLKYISDRFEERRRAIETSLSDPNSEEYIPNEARRSEFLEDRDEYASHNVFWVPELARWGYLQDNAKLPKIGQQLDQAMDLIEKENPIIRGVLPRNYGREGLDKSRLGQLVDLIGSIGFTESDDHGSDDVLGRVYEYFLGQFAGKETGKDAGAFYTPRSVVKTLVEMLEPFHGRVYDPACGSGGMFVQSAEFVTAHGGERTDISVYGQEFTDTTWKLAKMNLALRGIEADLGDRSADSFTQDLHRDLRADFIIANPPFNVSNWWNAKLADDPRWKYGTPPEGNANFAWVQHFLHHLSPKGTAGFVLSNGSLSSKSSGEGEIRRKLVEADLVDCIVAMPDKLFFNTGIPVSLWFISKERHGNGHRARQGEVLFIDASKLGRMENRRLRVLDDDRDIAKIAGAYHAWRNHDGGYEDVPGFVVAATLEEIRQHDFVLTPGRYVGTKEAEADWEPVEDKIARLTGELYAEFERGRKLEEVVRERLGGLNAD”, the “soluble on expression in E. coli” value was “not soluble”.
In the case of “MGSDKIHHHHHHMARLPLKQFLADNPKKVLVLDGGQGTELENRGIKVANPVWSTIPFISESFWSDESSANRKIVKEMFNDFLNAGAEILMTTTYQTSYKSVSENTPIRTLSEYNNLLNRIVDFSRNCIGEDKYLIGCIGPWGAHICREFTGDYGAEPENIDFYQYFKPQLENFNKNDKLDLIGFETIPNIHELKAILSWDESILSRPFYIGLSVHEHGVLRDGTTMEEIAQVIKDLGDKINPNFSFLGINCVSFNQSPDILESLHQALPNMALLAYPNSGEVYDTEKKIWLPNSDKLNSWDTVVKQYISSGARIIGGCCRTSPKDIQEISAAVKKYT”, the “soluble on expression in E. coli” value is reported as “not soluble”.
For “MGSDKIHHHHHHMARVKEEADRISEQANSHIENIRRQIEQEKNDWAAEKQKLIEEAKAEGFEQGVALGKAEAMKQYAELIGQANTITEMSRKAVEDKLEDANEEIVELAVALAKKVWQQKSDDKEAFLLLVQQVINEVKEYDDISIYVDPYYYETIFQQKDEIQQLLYKECRLGIYADEKAQKGTCYIETPFGRVDASVDTQLMQLKDKLLTALEAGAAE”, the “soluble on expression in E. coli” value was “not soluble”.
